From the supplement of paper PMC10724198
± gives the standard deviation of the averaged measurements.

These sequences were tested on Saccharomyces cerevisiae (assay: protein stability index of tFT-peptide fusion (C-terminal peptide) (PSI (0-1 scale)); higher = more stable (slower turnover)). Conditions: genetic background: wild type; temperature: 30 C.
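Note: PSI is a weighted mean of sequencing reads over stability bins, variants kept only with over 10 reads, mCherry proximal and sfGFP distal, peptide attached via GGGS linker.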

| Sequence | protein stability index |
| --- | --- |
| RAVAGGPMPGSG | 0.732 ± 0.044 |
| RCAIMGRGGIVT | 0.686 ± 0.018 |
| RCGVGGAVSFWW | 0.72 ± 0.05 |
| RCLGVCRAESLP | 0.682 ± 0.034 |
| RCQYRRTMSITI | 0.635 ± 0.034 |
| RCRNVGAVATPR | 0.643 ± 0.1 |
| RCSDILGKGKHV | 0.661 ± 0.0084 |
| RDAGPSKERNRR | 0.675 ± 0.039 |
| RDARTWTVSHGT | 0.703 ± 0.033 |
| RDELSYIDICLT | 0.691 ± 0.025 |
| RDFLLLASHLRF | 0.764 ± 0.056 |
| RDGYMVKVYGVK | 0.707 ± 0.1 |
| RDLEAVRSEDHR | 0.6766 ± 0.0047 |
| RDLLYHNCRNMI | 0.695 ± 0.027 |
| RDLYHPFQSHQS | 0.705 ± 0.019 |
| RDPSVVGLGRPP | 0.604 ± 0.0076 |
| RDPTTYGRSKEN | 0.655 ± 0.023 |
| RDQPPPLPFTRP | 0.712 ± 0.1 |
| RDRGWSRGRQVH | 0.662 ± 0.015 |
| RDSKDMTWISTS | 0.6755 ± 0.0024 |
| RDSVLSFSALQV | 0.681 ± 0.0097 |
| REIVLQTSAAYN | 0.613 ± 0.037 |
| REKRSVTQSTTD | 0.796 ± 0.12 |
| REKSLKINKKKN | 0.676 ± 0.0068 |
| RERLSRGGEGFE | 0.693 ± 0.021 |
| RERRGPTDLKRH | 0.712 ± 0.041 |

| Sequence | protein stability index |
| --- | --- |
| RFARQSNTFSQS | 0.659 ± 0.013 |
| RFASGAVLSWAC | 0.695 ± 0.015 |
| RFEISNLVFIPR | 0.686 ± 0.033 |
| RFFGAVSFQFCL | 0.699 ± 0.011 |
| RFFYGGRRTQQT | 0.753 ± 0.058 |
| RFLAHLVRPFCG | 0.722 ± 0.039 |
| RFNGWRDKEAME | 0.707 ± 0.036 |
| RFNLLLSATEDR | 0.716 ± 0.07 |
| RFPFFLLPPLSS | 0.65 ± 0.091 |
| RFPLLAPPRPLP | 0.7318 ± 0.0043 |
| RFPLLPLLRPPP | 0.6494 ± 0.0031 |
| RFPPPPPPPPLL | 0.718 ± 0.078 |
| RFSLGLIFLPSL | 0.68 ± 0.044 |
| RFSYFPALFFPS | 0.678 ± 0.043 |
| RFVDLASFLTFR | 0.587 ± 0.031 |
| RGAEACGGVPGQ | 0.671 ± 0.024 |
| RGAKKMNHRGRS | 0.675 ± 0.052 |
| RGDHPAAGFPCG | 0.686 ± 0.033 |
| RGFVVGGGGWLG | 0.706 ± 0.051 |
| RGGAGGRKVSVG | 0.651 ± 0.05 |
| RGGAGGRLGCGG | 0.71 ± 0.071 |
| RGGGFIGSFFMG | 0.751 ± 0.15 |
| RGGGGAWAGGVA | 0.734 ± 0.019 |
| RGGGGGEWGEQR | 0.702 ± 0.046 |
| RGGGGGSVSFWW | 0.676 ± 0.071 |
| RGGGGPTVEDRR | 0.681 ± 0.007 |

| Sequence | protein stability index |
| --- | --- |
| RGGGGRGGSEGS | 0.686 ± 0.017 |
| RGGPPPPPSITL | 0.851 ± 0.12 |
| RGGSVGRGRLCL | 0.643 ± 0.014 |
| RGHLPPIGLTRH | 0.675 ± 0.013 |
| RGILGAGGAGRG | 0.744 ± 0.079 |
| RGKATREAGKKR | 0.7916 ± 0.0028 |
| RGLLLSRRWFSP | 0.641 ± 0.099 |
| RGPPGVPGSDML | 0.673 ± 0.023 |
| RGPSGARRQPGL | 0.6658 ± 0.0044 |
| RGRAGPVVRELT | 0.646 ± 0.097 |
| RGRGEVRGVGGG | 0.698 ± 0.067 |
| RGRRGAGTGRGP | 0.657 ± 0.019 |
| RGRSVEGSRGGW | 0.6781 ± 0.0048 |
| RGRWGGGRVVRG | 0.6944 ± 0.0062 |
| RGSGCAFLFAWF | 0.654 ± 0.092 |
| RGSPDRPGGPLP | 0.7322 ± 0.0028 |
| RGTGPPGALREE | 0.653 ± 0.046 |
| RGVCVGGGCWLV | 0.624 ± 0.034 |
| RGWGGGRVAREC | 0.657 ± 0.026 |
| RGWWVLCGGGGG | 0.57 ± 0.044 |
| RGWWVRGGVLWC | 0.677 ± 0.048 |
| RGYSGSLSVVIY | 0.657 ± 0.057 |
| RGYVNVWTRLGN | 0.717 ± 0.043 |
| RHENKKDKIRME | 0.701 ± 0.11 |
| RHKLYPRIVLNR | 0.699 ± 0.055 |
| RHLPPAPAPRFI | 0.717 ± 0.2 |

| Sequence | protein stability index |
| --- | --- |
| RHPPPPPPALTP | 0.707 ± 0.054 |
| RHSLPSPPAFCL | 0.723 ± 0.0092 |
| RHTARQSTTWRG | 0.695 ± 0.071 |
| RIAAVRVEGRDD | 0.708 ± 0.026 |
| RIADSLTPAHPA | 0.699 ± 0.023 |
| RIEIVDVQFLWE | 0.7 ± 0.048 |
| RIEKNTKRSEIW | 0.665 ± 0.021 |
| RIHAVINLLMND | 0.651 ± 0.039 |
| RIKAKKNKTMKR | 0.655 ± 0.021 |
| RIKRTMNEKIRK | 0.68 ± 0.0041 |
| RIPSKSHAWVLV | 0.483 ± 0.058 |
| RITTNQMNIKFI | 0.653 ± 0.02 |
| RIWKKKRYNEKS | 0.681 ± 0.12 |
| RKASQEQYHQRH | 0.648 ± 0.05 |
| RKCHCPGGGRRI | 0.7171 ± 0.00079 |
| RKDEKRGTVIIA | 0.62 ± 0.021 |
| RKGHKSNRSKNE | 0.705 ± 0.03 |
| RKINKQKRTKEE | 0.6449 ± 0.0023 |
| RKKEKKQKKKKG | 0.688 ± 0.043 |
| RKKIRKNITQQP | 0.692 ± 0.052 |
| RKKKKKNKNEKE | 0.713 ± 0.04 |
| RKKKNRKERQKK | 0.6725 ± 0.00086 |
| RKKPRKLRETDN | 0.649 ± 0.053 |
